Experimental data: PMC8633789, “Transmembrane topology and oligomeric nature of an astrocytic membrane protein, MLC1” (Open Biology, 2021)
Blank lines part the entries; values can stand above or below the molecule they belong to.

What was measured:
[1] = biological target: codon-optimized chicken MLC1 with 6× His-tag (chicken); assay: cross-linking; glutaraldehyde (400-fold molar excess) on protein-detergent micelles (0.5-0.9 µg protein/µl), 1, 10 or 30 min at 23°C, SDS-PAGE; cross-linking largely inhibited with 2% SDS
CLC-ck2 = assay: SEC-MALS; SEC-MALS-RI, Superdex-200 Increase 10/300 GL, 1 mg/ml in 200 µl, 150 mM NaCl, 20 mM HEPES pH 7.5, 2 mM DDM
[2] = biological target: the molecule itself; assay: as above
[3] = biological target: the molecule itself; assay: cross-linking; glutaraldehyde (400-fold molar excess) on protein-detergent micelles (0.5-0.9 µg protein/µl), 1, 10 or 30 min at 23°C, SDS-PAGE; cross-linking largely inhibited with 2% SDS
[4] = biological target: the molecule itself; assay: single-molecule photobleaching (TIRFM); proteoliposomes (POPE:POPG 3:1, 0.1 mol% biotinyl CAP-PE, 0.4 µg protein/mg lipid) immobilised on a coated coverslip; distribution of GFP bleaching steps compared with binomial models, p = 0.8

stoichiometry N [1]: 3
Molecule: codon-optimized chicken MLC1 with 6× His-tag (natural protein)

Molecule: CLC-ck2 (natural protein)
stoichiometry N (CLC-ck2): 2

B1: CLC-ec1 (natural protein, UniProt P37019 1-473, looked up)
chain: MKTDTPSLETPQAARLRRRQLIRQLLERDKTPLAILFMAAVVGTLVGLAAVAFDKGVAWLQNQRMGALVHTADNYPLLLTVAFLCSAVLAMFGYFLVRKYAPEAGGSGIPEIEGALEDQRPVRWWRVLPVKFFGGLGTLGGGMVLGREGPTVQIGGNIGRMVLDIFRLKGDEARHTLLATGAAAGLAAAFNAPLAGILFIIEEMRPQFRYTLISIKAVFIGVIMSTIMYRIFNHEVALIDVGKLSDAPLNTLWLYLILGIIFGIFGPIFNKWVLGMQDLLHRVHGGNITKWVLMGGAIGGLCGLLGFVAPATSGGGFNLIPIATAGNFSMGMLVFIFVARVITTLLCFSSGAPGGIFAPMLALGTVLGTAFGMVAVELFPQYHLEAGTFAIAGMGALLAASIRAPLTGIILVLEMTDNYQLILPMIITGLGATLLAQFTGGKPLYSAILARTLAKQEAEQLARSKAASASENT
notes: CLC-ec1, control membrane protein, approximately 100 kDa as a dimer; also called CLC-ec1 dimer
stoichiometry N [2]: 2

B2: 3× Flag-tagged human MLC1 (natural protein, UniProt Q15049-1 1-377, looked up)
chain: MTQEPFREELAYDRMPTLERGRQDPASYAPDAKPSDLQLSKRLPPCFSHKTWVFSVLMGSCLLVTSGFSLYLGNVFPAEMDYLRCAAGSCIPSAIVSFTVSRRNANVIPNFQILFVSTFAVTTTCLIWFGCKLVLNPSAININFNLILLLLLELLMAATVIIAARSSEEDCKKKKGSMSDSANILDEVPFPARVLKSYSVVEVIAGISAVLGGIIALNVDDSVSGPHLSVTFFWILVACFPSAIASHVAAECPSKCLVEVLIAISSLTSPLLFTASGYLSFSIMRIVEMFKDYPPAIKPSYDVLLLLLLLVLLLQAGLNTGTAIQCVRFKVSARLQGASWDTQNGPQERLAGEVARSPLKEFDKEKAWRAVVVQMAQ
notes: human MLC1 (megalencephalic leukoencephalopathy with subcortical cysts protein 1), cDNA NM_015166.3 from GenScript; The predicted mass of the tagged monomer (approx. 44 kDa) fits the whole protein; also called 3× Flag-hMLC1; hMLC1; not shown: 3× Flag, N-terminal, kept
stoichiometry N [3]: 3

B3: 3× Flag-tagged hMLC1-GFP (natural protein, human, UniProt Q15049-1 1-377, looked up)
chain: MTQEPFREELAYDRMPTLERGRQDPASYAPDAKPSDLQLSKRLPPCFSHKTWVFSVLMGSCLLVTSGFSLYLGNVFPAEMDYLRCAAGSCIPSAIVSFTVSRRNANVIPNFQILFVSTFAVTTTCLIWFGCKLVLNPSAININFNLILLLLLELLMAATVIIAARSSEEDCKKKKGSMSDSANILDEVPFPARVLKSYSVVEVIAGISAVLGGIIALNVDDSVSGPHLSVTFFWILVACFPSAIASHVAAECPSKCLVEVLIAISSLTSPLLFTASGYLSFSIMRIVEMFKDYPPAIKPSYDVLLLLLLLVLLLQAGLNTGTAIQCVRFKVSARLQGASWDTQNGPQERLAGEVARSPLKEFDKEKAWRAVVVQMAQ
notes: human MLC1, cDNA NM_015166.3; probably as for 3× Flag-hMLC1 (HEK293S GnTI-); also called 3× F-hMLC1-G; 3× F-hMLC1-GFP; source: reconstituted into POPE:POPG proteoliposomes; not shown: 3× Flag, N-terminal, kept; GFP, C-terminal, kept
stoichiometry N [4]: 3
